Among the data in publication PMC7076015 (2020) are ratio to parent values, retold here.

B1: Flag-myc-hnRNP R (wild type) [not stated] / HA-KPNA7 [human] (parent complex)
chain 1: MANQVNGNAVQLKEEEEPMDTSSVTHTEHYKTLIEAGLPQKVAERLDEIFQTGLVAYVDLDERAIDALREFNEEGALSVLQQFKESDLSHVQNKSAFLCGVMKTYRQREKQGSKVQESTKGPDEAKIKALLERTGYTLDVTTGQRKYGGPPPDSVYSGVQPGIGTEVFVGKIPRDLYEDELVPLFEKAGPIWDLRLMMDPLSGQNRGYAFITFCGKEAAQEAVKLCDSYEIRPGKHLGVCISVANNRLFVGSIPKNKTKENILEEFSKVTEGLVDVILYHQPDDKKKNRGFCFLEYEDHKSAAQARRRLMSGKVKVWGNVVTVEWADPVEEPDPEVMAKVKVLFVRNLATTVTEEILEKSFSEFGKLERVKKLKDYAFVHFEDRGAAVKAMDEMNGKEIEGEEIEIVLAKPPDKKRKERQAARQASRSTAYEDYYYHPPPRMPPPIRGRGRGGGRGGYGYPPDYYGYEDYYDDYYGYDYHDYRGGYEDPYYGYDDGYAVRGRGGGRGGRGAPPPPRGRGAPPPRGRAGYSQRGAPLGPPRGSRGGRGGPAQQQRGRGSRGSRGNRGGNVGGKRKADGYNQPDSKRRQTNNQQNWGSQPIAQQPLQQGGDYSGNYGYNNDNQEFYQDTYGQQWK
chain 2: not shown

In the assay the parent is B1. As to the kind of experiment: co-immunoprecipitation (HA-IP, Flag western blot quantified); HEK293T(HA-KPNA7) cell extracts; input 2%, IP 30%; parent: 1.
On to chain 1 K584A, chain 1 R585A, chain 1 R586A, for which the ratio to parent was determined as 0.2.
For chain 1 K414A, chain 1 K415A, chain 1 R416A the value was 0.43.
For the variant chain 1 K572A, chain 1 R573A, chain 1 K574A, the ratio to parent stood at 0.21.
